The text below walks through data of doi:10.1101/2020.11.24.395475.

This series has as its target ARTD2WGR-RD-ART (Homo sapiens, UniProt Q9UGN5 90-583). The series is described as follows: X-ray crystallography.

Chain of ARTD2WGR-RD-ART (Q9UGN5 90-583): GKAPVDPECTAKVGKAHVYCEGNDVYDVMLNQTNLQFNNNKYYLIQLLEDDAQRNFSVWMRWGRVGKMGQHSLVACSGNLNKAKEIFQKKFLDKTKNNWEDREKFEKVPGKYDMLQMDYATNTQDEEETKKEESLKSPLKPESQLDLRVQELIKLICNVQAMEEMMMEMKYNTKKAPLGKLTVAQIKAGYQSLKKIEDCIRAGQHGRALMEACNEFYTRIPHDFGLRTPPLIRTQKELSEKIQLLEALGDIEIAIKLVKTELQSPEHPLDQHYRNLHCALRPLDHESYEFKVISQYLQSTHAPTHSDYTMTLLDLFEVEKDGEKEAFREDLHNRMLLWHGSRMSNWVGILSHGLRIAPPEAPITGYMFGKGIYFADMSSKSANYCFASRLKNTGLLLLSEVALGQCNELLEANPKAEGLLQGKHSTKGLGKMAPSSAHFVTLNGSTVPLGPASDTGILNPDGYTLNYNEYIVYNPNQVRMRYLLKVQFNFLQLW

B1: DNA-1 (dsDNA)
DNA 1: GACGACCCGGAGCACA
DNA 2: TGTGCTCCGGGTCGTC
modifications: 5'-phosphate on forward strand
On to B1, for which the binding result is “binds”.
